Patent US9988424 (DUKE UNIVERSITY, dated 2018)
Positions count from the first letter of the chain named. Like-named read-outs stand apart in the source and are kept apart here.

How the values were obtained:
[1] = biological target: T1, gp70 B.CaseA2 V1/V2/V169K/E172V/E173H (HIV-1 V1V2 on murine leukemia virus gp70); assay: ELISA
T1 construct: also called gp70 B.CaseA2 V1/V2 Mut3
T1 chain: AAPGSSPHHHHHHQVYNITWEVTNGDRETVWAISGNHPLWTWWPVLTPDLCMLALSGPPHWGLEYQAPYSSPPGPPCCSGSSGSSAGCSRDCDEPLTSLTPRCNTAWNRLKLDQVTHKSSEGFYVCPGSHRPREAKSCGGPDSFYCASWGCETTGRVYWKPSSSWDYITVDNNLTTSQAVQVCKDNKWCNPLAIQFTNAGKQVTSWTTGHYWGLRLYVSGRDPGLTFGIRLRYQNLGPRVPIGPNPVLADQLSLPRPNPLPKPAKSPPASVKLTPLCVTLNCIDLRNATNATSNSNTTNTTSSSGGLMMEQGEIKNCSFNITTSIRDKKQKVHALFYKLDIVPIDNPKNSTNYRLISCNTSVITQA

[2] = biological target: T2, gp70 B.CaseA2 V1/V2/V169K (HIV-1 V1V2 on murine leukemia virus gp70); assay: ELISA
T2 chain: T1 chain with V332E, H333Y

C.CAP206 gp140CF.12 = C.CAP206 gp140CF.12 (HIV-1); assay: ELISA
[3] = biological target: Env of 427299.c12.Q169K virus (HIV-1); assay: cell-based or functional assay
[4] = biological target: Env of CM244NW.4.K169Q virus (HIV-1); assay: cell-based or functional assay
[5] = biological target: Env of 703357.2.I181L virus (HIV-1); assay: cell-based or functional assay
Env of 427299.c12 virus = Env of 427299.c12 virus (HIV-1); assay: cell-based or functional assay
[6] = biological target: Env of TH023.6.I181L virus (HIV-1); assay: cell-based or functional assay
[7] = biological target: Env of 92TH023 K169Q virus (HIV-1); assay: cell-based or functional assay
[8] = biological target: Env of 703357.2.Q169K virus (HIV-1); assay: cell-based or functional assay
[9] = biological target: Env of 703357.2.Q169KI181L virus (HIV-1); assay: cell-based or functional assay
[10] = biological target: Env of 703357.2.Q169KR170QI181L virus (HIV-1); assay: cell-based or functional assay
Env of 703357.c02 virus = Env of 703357.c02 virus (HIV-1); assay: cell-based or functional assay
[11] = biological target: Env of CM244NW.6.I181L virus (HIV-1); assay: cell-based or functional assay
Env of AE.92TH023 virus = Env of AE.92TH023 virus (HIV-1); assay: cell-based or functional assay
[12] = biological target: Env of 703357.2.Q169KR170Q virus (HIV-1); assay: cell-based or functional assay
[13] = biological target: Env of 427299.c12.KL.Q169K/I181L virus (HIV-1); assay: cell-based or functional assay
Env of AE.CM244 virus = Env of AE.CM244 virus (HIV-1); assay: cell-based or functional assay
[14] = biological target: Env of 427299.c12.H81L virus (HIV-1); assay: cell-based or functional assay
C.1086 V1V2 Tags [15] = biological target: C.1086 V1V2 Tags (HIV-1); assay: ELISA
gp70 C.1086 V1/V2 [16] = biological target: T3, gp70 C.1086 V1/V2 (HIV-1 V1V2 on murine leukemia virus gp70); assay: ELISA
T3 construct: also called C.gp70 1086C V1V2; C.1086gp70V1V2
T3 chain: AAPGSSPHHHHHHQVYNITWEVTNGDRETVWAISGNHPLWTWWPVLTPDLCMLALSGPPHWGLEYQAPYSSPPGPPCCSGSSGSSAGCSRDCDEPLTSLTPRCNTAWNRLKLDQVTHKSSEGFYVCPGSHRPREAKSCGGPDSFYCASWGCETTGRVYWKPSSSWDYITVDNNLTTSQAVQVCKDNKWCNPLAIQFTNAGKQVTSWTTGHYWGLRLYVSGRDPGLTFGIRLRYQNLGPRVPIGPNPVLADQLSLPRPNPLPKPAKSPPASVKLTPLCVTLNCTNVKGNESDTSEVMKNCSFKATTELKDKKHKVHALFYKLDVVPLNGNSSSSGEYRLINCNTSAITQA

AE.A244 gp120 delta 11 [17] = biological target: T4, AE.A244 gp120 delta 11 (HIV-1); assay: ELISA
T4 construct: also called E.A244gp120Δ11; AE.A244 Δ11 gp120

AE.A244 V1V2 Tags [18] = biological target: AE.A244 V1V2 Tags (HIV-1); assay: ELISA
C.1086 V1V2 Tags [19] = biological target: C.1086 V1V2 Tags (HIV-1); assay: ELISA; remark: listed apart in the source
gp70 C.1086 V1/V2 [20] = biological target: T3, gp70 C.1086 V1/V2; assay: ELISA
AE.A244 gp120 delta 11 [21] = biological target: T4, AE.A244 gp120 delta 11; assay: ELISA; remark: listed apart in the source
AE.A244 V1V2 Tags [22] = biological target: AE.A244 V1V2 Tags (HIV-1); assay: ELISA; remark: listed apart in the source

B1: CH59 (antibody, V domains shown)
VH: EVQLVESGGGLVQPGRSLRLSCAASGFTFDDGAMHWVRQAPGKGLEWVSGISWNSNIIAYADSVKGRFTISRDNAKNSLYLEMNSLRVEDTALYYCAKDSPRGELPLNYWGQGTLVTVSS
VL: SYELTQPPSVSVSPGQTARITCSGDALPKNYAYWYQQKSGQAPVLVIYEDSKRPSGIPERFSGSSSGTMATLTISGAQVEDEADYYCYSTDSSGNHRVFGGGTKLTVL
notes: also called mAb CH59
[1]
  EC50: 0.02 µg/mL
[2]
  binding result: no binding
C.CAP206 gp140CF.12
  EC50: > 667 nM
[3]
  ID50 assayed in TZM-bl cells, 427299.c12.Q169K: > 50 µg/mL
[4]
  ID50 assayed in TZM-bl cells, CM244NW.4.K169Q: > 50 µg/mL
[5]
  ID50 assayed in TZM-bl cells, 703357.2.I181L: > 50 µg/mL
Env of 427299.c12 virus
  ID50 assayed in TZM-bl cells, 427299.c12: > 50 µg/mL
[6]
  ID50 assayed in TZM-bl cells, TH023.6.I181L: 5.33 µg/mL
[7]
  ID50 assayed in TZM-bl cells, TH023.6.K169Q: > 50 µg/mL
[8]
  ID50 assayed in TZM-bl cells, 703357.2.Q169K: > 50 µg/mL
[9]
  ID50 assayed in TZM-bl cells, 703357.2.Q169KI181L: > 50 µg/mL
[10]
  ID50 assayed in TZM-bl cells, 703357.2.Q169KR170QI181L: > 50 µg/mL
Env of 703357.c02 virus
  ID50 assayed in TZM-bl cells, 703357.c02: > 50 µg/mL
[11]
  ID50 assayed in TZM-bl cells, CM244NW.6.I181L: > 50 µg/mL
Env of AE.92TH023 virus
  ID50 assayed in TZM-bl cells, TH023.6: 1.92 µg/mL
[12]
  ID50 assayed in TZM-bl cells, 703357.2.Q169KR170Q: > 50 µg/mL
[13]
  ID50 assayed in TZM-bl cells, 427299.c12.KL.Q169K/I181L: > 50 µg/mL
Env of AE.CM244 virus
  ID50 assayed in TZM-bl cells, CM244.ec1: > 50 µg/mL
[14]
  ID50 assayed in TZM-bl cells, 427299.c12.H81L: > 50 µg/mL
C.1086 V1V2 Tags [15]
  EC50: 0.1 nM
gp70 C.1086 V1/V2 [16]
  EC50: 0.067 nM
AE.A244 gp120 delta 11 [17]
  EC50: 0.087 nM
AE.A244 V1V2 Tags [18]
  EC50: 0.014 nM
C.1086 V1V2 Tags [19]
  EC50: 0.1 nM
gp70 C.1086 V1/V2 [20]
  EC50: 0.067 nM
AE.A244 gp120 delta 11 [21]
  EC50: 0.087 nM
AE.A244 V1V2 Tags [22]
  EC50: 0.014 nM
